Test results taken from US20190271704.

Columns and labels:
[1] = biological target: T1, NE nanosensor with heptafluorobutylamine reporter (peptide-PFC conjugated to a 40 kDa 8-arm PEG scaffold)
T1 chain: CKKKXXXX

[2] = biological target: T2, NE nanosensor with pentafluoropropylamine reporter (peptide-PFC conjugated to a 40 kDa 8-arm PEG scaffold)
T2 chain: CKKKXXXX

[3] = biological target: T3, NE peptide substrate with acetylated N-terminal CKKK-PEG4 linker and C-terminal heptafluorobutylamine reporter (peptide-PFC) (not fully specified)
T3 chain: CKKKXXXX

[4] = biological target: T4, NE peptide substrate with acetylated N-terminal CKKK-PEG4 linker and C-terminal pentafluoropropylamine reporter (peptide-PFC) (not fully specified)
T4 chain: CKKKXXXX

B1: neutrophil elastase (NE) (protein)
chain: IVGGRRARPHAWPFMVSLQLRGGHFCGATLIAPNFVMSAAHCVANVNVRAVRVVLGAHNLSRREPTRQVFAVQRIFENGYDPVNLLNDIVILQLNGSATINANVQVAQLPAQGRRLGNGVQCLAMGWGLLGRNRGIASVLQELNVTVVTSLCRRSNVCTLVRGRQAGVCFGDSGSPLVCNGLIHGIASFVRGGCASGLYPDAFAPVAQFVNWIDSIIQ
[1]
  kcat/Km (Michaelis-Menten kinetics of substrate cleavage): kcat/Km values were on the order of 10^5 M^-1s-^-1
[2]
  kcat/Km (Michaelis-Menten kinetics of substrate cleavage): kcat/Km values were on the order of 10^5 M^-1s-^-1
[3]
  PFC release from the peptide substrate (real-time vapor analysis mass spectrometry): cleaved specifically by NE
[4]
  PFC release from the peptide substrate (real-time vapor analysis mass spectrometry): cleaved specifically by NE
